Assays:
PAC-1 = PAC-1 binding to transfected HEK293FT cells (normalized MFI); conditions: 1 mM Ca/Mg; parent: est. 4; read off a plot
mAb KIM127 = assay: mAb binding to transfected HEK293FT cells (MFI normalized to integrin expression); conditions: read off a plot
mAb m24 = assay: as above; conditions: read off a plot
[1] = molecular target: human ICAM-1 with a C-terminal Fc tag of human IgG1 (UniProt P05362); assay: ICAM-1 binding to transfected HEK293FT cells (MFI normalized to integrin expression); conditions: 1 mM CaCl2 plus 1 mM MgCl2 (Ca/Mg), read off a plot
[2] = 1 mM CaCl2 plus 1 mM MnCl2 (Ca/Mn), parent: est. 200
[3] = 1 mM CaCl2 plus 1 mM MnCl2 (Ca/Mn), parent: est. 230

Substance | response (normalized MFI) (PAC-1) | response (normalized MFI) (mAb KIM127; 1 mM Ca/Mg, parent: est. 80) | response (normalized MFI) (mAb KIM127; [2]) | response (normalized MFI) (mAb m24; [3]) | other results
αIIb WT + β3 WT αIIb:L959C; αIIb:K994C; β3:P688C | 3 | – | – | – | –
αL/β2 WT αL:FFAA (GFFKR to GAAKR) | – | – | – | – | response (normalized MFI) (mAb KIM127; 1 mM Ca/Mg, parent: est. 18): 80; response (normalized MFI) (mAb KIM127; 1 mM CaCl2 plus 1 mM MnCl2 (Ca/Mn), parent: est. 44): 200; response (normalized MFI) (mAb m24; 1 mM CaCl2 plus 1 mM MnCl2 (Ca/Mn), parent: est. 58): 230; response (normalized MFI) ([1]; parent: est. 5): 60
αIIb WT + β3 WT αIIb:L959C; αIIb:F993C | 37 | – | – | – | –
integrin αLβ2 with the αL-GFFKR to GAAKR mutation and wild-type β2 (from UniProt P20701;P05107) β2:L696P | – | 52 | 180 | 260 | response (normalized MFI) (mAb m24; 1 mM Ca/Mg, parent: est. 98): 75
αIIb WT + β3 WT αIIb:L959C; αIIb:G991C; β3:P688C | 4 | – | – | – | –
integrin αLβ2 with the αL-GFFKR to GAAKR mutation and wild-type β2 (from UniProt P20701;P05107) β2:L692P | – | 120 | 210 | 210 | response (normalized MFI) (mAb m24; 1 mM Ca/Mg, parent: est. 98): 160
αIIb WT + β3 WT β3:P688C | 6 | – | – | – | –
αIIb WT + β3 WT αIIb:L959C; αIIb:F993C; β3:P688C | 3 | – | – | – | –
αIIb WT + β3 WT αIIb:L959C; αIIb:F992C; β3:P688C | 3 | – | – | – | –
αIIb WT + β3 WT αIIb:L959C; αIIb:R995C; β3:P688C | 11 | – | – | – | –
integrin αLβ2 with the αL-GFFKR to GAAKR mutation and wild-type β2 (from UniProt P20701;P05107) β2:I698P | – | – | – | – | response (normalized MFI) ([1]; parent: est. 60): 84
integrin αLβ2 with the αL-GFFKR to GAAKR mutation and wild-type β2 (from UniProt P20701;P05107) β2:I693P | – | 30 | 110 | 140 | response (normalized MFI) (mAb m24; 1 mM Ca/Mg, parent: est. 98): 33
αIIb WT + β3 WT αIIb:L959C; αIIb:G991C | 150 | – | – | – | –

Now from value to substance, other results behind:

response (normalized MFI) (PAC-1) | response (normalized MFI) (mAb KIM127; 1 mM Ca/Mg, parent: est. 80) | response (normalized MFI) (mAb KIM127; [2]) | response (normalized MFI) (mAb m24; [3]) | Substance | other results
110 | – | – | – | αIIb WT + β3 WT αIIb:L959C; αIIb:R995C | –
– | 60 | 170 | 200 | integrin αLβ2 with the αL-GFFKR to GAAKR mutation and wild-type β2 (from UniProt P20701;P05107) β2:I690P | response (normalized MFI) (mAb m24; 1 mM Ca/Mg, parent: est. 98): 67
– | 31 | 120 | 180 | integrin αLβ2 with the αL-GFFKR to GAAKR mutation and wild-type β2 (from UniProt P20701;P05107) β2:V691P | response (normalized MFI) (mAb m24; 1 mM Ca/Mg, parent: est. 98): 30
25 | – | – | – | αIIb WT + β3 WT αIIb:L959C; αIIb:K994C | –
34 | – | – | – | αIIb WT + β3 WT αIIb:L959C; αIIb:F992C | –
– | 91 | 190 | 220 | integrin αLβ2 with the αL-GFFKR to GAAKR mutation and wild-type β2 (from UniProt P20701;P05107) β2:V699P | –
